We go through 1 substance from patent US20230227514A1, “BETA-ARRESTIN COMPOSITIONS AND ASSOCIATED METHODS” (Duke University, priority 2020, published 2023).

Test [1] addresses T1, V2R (Homo sapiens, UniProt P30518).
T1 construct: HA (N); expressed in transfected cells
The test can be described thus: BRET assay of βarrestin2 construct recruitment to V2R. Format: cell-based. The note with it: vasopressin stimulation, 15 min. Here is the method: Changes following agonist treatment are expressed as a percentage of the BRET signal observed in unstimulated cells (top panel). The histogram (bottom panel) represents Bmax values of agonist-induced BRET as means±SEM of 3 independent experiments performed in duplicates. Lack of significance (“ns”) of changes in energy transfer was evaluated using unpaired t-test.
(§1) BRET assays. […] Titration assays were first completed, which allowed determination of the specificity of association among different interaction partners. See Nagi and Shenoy. 2019, supra; Gales et al. 2005. Nature methods 2:177-184; Nagi et al. 2015. Cellular and molecular life sciences: CMLS 72:3543-3557; Audet and Pineyro. 2011. Methods in molecular biology 756:149-163; and Rebois et al. 2006. Journal of cell science 119:2807-2818. […] BRET readings were acquired using Synergy Neo2 plate reader and obtained 5 min after manual addition of Rluc substrate, coelenterazine h (Promega) to a final concentration of 5 μM.
The BRET signal generated was determined by calculating the ratio of light emitted by YFP (520-550 nm) over the light emitted by Rluc (440-480 nm). These values were then corrected by subtracting the background signal (detected when the Rluc-tagged construct was expressed without acceptor) from the BRET signal detected in cells co-expressing both donor and acceptor constructs. […]
For orientation: In BRET a luciferase serves as donor, and the signal depends on an acceptor being close.

A further test concerns HEK-293 cells. The test can be described thus: Confocal microscopy of subcellular distribution of YFP-tagged proteins. Format: cell-based, Human. The note with it: 85 cells (mYFP-βarrestin2-SUMO1) and 80 cells (mYFP-SUMO1) observed. Here is the method: Immunostaining and confocal microscopy. […] Twenty-four hours post-transfection, cells were serum-starved for 4 h, and either left untreated or treated with respective agonists for the indicated times in the Figure descriptions. After stimulation, cells were fixed with 5% formaldehyde diluted in phosphate-buffered saline (PBS), permeabilized with 0.1% Triton in PBS containing 2% bovine serum albumin for 20 min and incubated at room temperature with appropriate primary antibody. The next day, cells were washed three times with PBS and incubated with Alexa594 conjugated secondary antibody for 1 h, followed by repeated washes using PBS. Confocal images were acquired using Zeiss LSM510 laser-scanning microscope using multitrack sequential with excitation (488 and 568 nm) and emission (BP 505-550 nm and LP 585 nm) filter sets. […] The nuclear rim localization of YFP-βarrestin2-SUMO1 is readily visualized in cells with low to moderate expression of YFP-protein. […]
To circumvent this issue, a YFP tagged βarrestin2-SUMO1 fusion protein was generated, which would be resistant to the enzymatic activity of SENP1. YFP-βarrestin2-SUMO1 expressed in the cytoplasm akin to YFP-βarrestin2; but was also detected at the nuclear membrane (data not shown). […] While YFP-SUMO1 was concentrated in the nucleus, and nucleoli, very little βarrestin2-SUMO1 was detected in the nucleus or nucleolus. […]

In test [2] the target is T2, β1 adrenergic receptor (β1AR) (Homo sapiens, UniProt P08588).
T2 construct: expressed in transfected cells
The test can be described thus: Confocal trafficking and colocalization with β1AR. Format: cell-based. The note with it: HEK-293 cells with stable β1AR expression. Here is the method: (§2) Immunostaining and confocal microscopy. […] Twenty-four hours post-transfection, cells were serum-starved for 4 h, and either left untreated or treated with respective agonists for the indicated times in the Figure descriptions. After stimulation, cells were fixed with 5% formaldehyde diluted in phosphate-buffered saline (PBS), permeabilized with 0.1% Triton in PBS containing 2% bovine serum albumin for 20 min and incubated at room temperature with appropriate primary antibody. The next day, cells were washed three times with PBS and incubated with Alexa594 conjugated secondary antibody for 1 h, followed by repeated washes using PBS. Confocal images were acquired using Zeiss LSM510 laser-scanning microscope using multitrack sequential with excitation (488 and 568 nm) and emission (BP 505-550 nm and LP 585 nm) filter sets. Images (1024×1024 pixels) were collected using either a 63× or 100× oil immersion lens. Images were processed for Figure presentation using Adobe Photoshop software, and any increase or decrease of brightness/contrast was applied to the entire image. The nuclear rim localization of YFP-βarrestin2-SUMO1 is readily visualized in cells with low to moderate expression of YFP-protein. In cells with high expression, this localization is present, and can be discerned by enlarging sections of the nuclear rim.

Test [3] has as its target T1, V2R. The test can be described thus: Co-immunoprecipitation of βarrestin2 constructs with HA-V2R. Format: binding. The following applies: HEK-293 cells stably expressing HA-V2R; AVP.
Procedure: Twenty-four hours post-transfection, cells were starved in PBS containing 10 mM HEPES (pH 7.4) for 1 h and stimulated with vehicle or agonist (isoproterenol, 1 μM; or AVP 1 μM, or Dopamine 1 μM) at 37° C. for desired times. After stimulations, β2AR stable cells were treated with the crosslinker DSP to a final concentration of 480 nM, and plates were rocked for 20 min at room temperature. Reaction was quenched by adding 25 μl of 1M Tris-Cl pH 8.5 per 1 mL volume of buffer in the dish and rocked for additional 5 min at room temperature.
Harvested cells were washed with ice-cold PBS (pH 7.4) and solubilized in an ice-cold lysis buffer (50 mM HEPES (pH 7.5), 2 mM EDTA, 250 mM NaCl, 10% (v/v) glycerol, and 0.5% (v/v) IGEPAL CA-630) that was supplemented with phosphatase and protease inhibitors (1 mM sodium orthovanadate, 1 mM sodium fluoride, 1 mM phenylmethylsulfonyl fluoride, 5 μg/ml leupeptin, 5 μg/ml aprotinin, 1 μg/ml pepstatin A, and 100 μM benzamidine). […] Cell lysate protein concentrations were determined by Bradford protein assay and equivalent μg of proteins were immunoprecipitated using anti-FLAG M2 antibody resin (for FIG. 2) or Anti-HA magnetic beads from Thermo Pierce (for FIG. 5, FIG. 7, and FIG. 8). […] HA-D2R or HA-V2R were detected using an anti-HA IgG (Cell Signaling Technologies). […]
A further test has as its target T3, D2R (Homo sapiens, UniProt P14416).
T3 construct: HA (N); expressed in transfected cells
The test can be described thus: Confocal trafficking and colocalization with D2R. Format: cell-based. The note with it: HEK-293 cells stably expressing D2R. Here is the method: as §2, with “rim. […]” for “rim.”

For a further test, the target named is T4, β2AR (Homo sapiens, UniProt P07550).
T4 construct: Flag (N); expressed in transfected cells
The test can be described thus: BRET titration assay of βarrestin2 construct recruitment to β2AR-Rluc. The following applies: HEK-293T cells; β2AR-Rluc with YFP acceptor constructs; isoproterenol 1 μM, 5 min; compared among βarrestin2 constructs. Format: cell-based.
Text: as §1, with “119:2807-2818. To achieve this, a fixed amount of the donor-tagged (Renilla luciferase, Rluc) construct was co-transfected with increasing amounts of the corresponding interaction partner bearing the acceptor (YFP).” for “119:2807-2818.”
The BRET signal generated was determined by calculating the ratio of light emitted by YFP (520-550 nm) over the light emitted by Rluc (440-480 nm). These values were then corrected by subtracting the background signal (detected when the Rluc-tagged construct was expressed without acceptor) from the BRET signal detected in cells co-expressing both donor and acceptor constructs. Agonist-induced BRET values were calculated by subtracting net BRET values of non-stimulated conditions from net BRET values corresponding to the stimulated conditions. […]

T3 sequence (P14416 whole entry): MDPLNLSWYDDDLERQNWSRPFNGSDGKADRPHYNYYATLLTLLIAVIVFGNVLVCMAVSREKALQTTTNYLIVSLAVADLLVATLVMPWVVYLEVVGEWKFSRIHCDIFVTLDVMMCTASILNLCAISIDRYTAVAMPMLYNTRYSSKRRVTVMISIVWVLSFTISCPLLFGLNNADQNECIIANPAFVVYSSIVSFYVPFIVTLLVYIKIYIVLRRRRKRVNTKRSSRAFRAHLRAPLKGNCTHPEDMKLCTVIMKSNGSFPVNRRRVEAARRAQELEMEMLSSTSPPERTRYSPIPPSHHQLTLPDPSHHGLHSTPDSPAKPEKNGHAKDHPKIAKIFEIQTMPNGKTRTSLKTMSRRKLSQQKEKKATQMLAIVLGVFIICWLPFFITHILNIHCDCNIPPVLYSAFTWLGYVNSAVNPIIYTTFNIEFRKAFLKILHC
T2 sequence (P08588 whole entry, species assumed): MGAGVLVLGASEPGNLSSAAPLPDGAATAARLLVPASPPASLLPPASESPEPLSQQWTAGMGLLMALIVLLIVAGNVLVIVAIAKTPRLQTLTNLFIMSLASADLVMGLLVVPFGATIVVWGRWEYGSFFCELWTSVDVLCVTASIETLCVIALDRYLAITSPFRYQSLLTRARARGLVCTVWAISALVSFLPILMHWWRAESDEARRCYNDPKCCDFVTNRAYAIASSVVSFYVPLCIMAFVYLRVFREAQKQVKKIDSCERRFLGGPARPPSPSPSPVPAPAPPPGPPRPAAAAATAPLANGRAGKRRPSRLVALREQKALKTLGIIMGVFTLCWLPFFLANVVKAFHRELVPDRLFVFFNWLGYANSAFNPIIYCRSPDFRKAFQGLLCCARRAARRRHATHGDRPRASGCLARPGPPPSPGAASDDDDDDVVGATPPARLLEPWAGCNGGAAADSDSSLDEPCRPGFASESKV

As to “βarrestin2-SUMO1: rat βarrestin2 polypeptide fused to human SUMO1 (SEQ ID NO:1); used YFP- or Flag-tagged”, the “magnitude of interaction with activated V2R defined by BRET, versus βarrestin2” value with V2R [1] was “No significant differences”. For the same substance, in the test on HEK-293 cells, the “localization of YFP fluorescence at the nuclear membrane” value is recorded as “all cells”. In addition, the “association with β1AR after isoproterenol activation (confocal)” value in test [2] is “strongly and stably”. Further, the “binding with agonist activated V2Rs by co-immunoprecipitation” value in the test with V2R [3] is “equivalent binding”. Further, the “stability of association with activated D2R (confocal)” value in the test with D2R is “associate stably”. Also, the “agonist-induced net BRET change for interaction with β2AR” value in the test with β2AR is given as “highest change in the net BRET value”.
